Reference: patent US20180201649A1 (YALE UNIVERSITY, published 2018)

T1: endothelial nitric oxide synthase (eNOS) (bovine (endogenous in BAEC), UniProt P29473 2-1205)
T1 sequence (looked up): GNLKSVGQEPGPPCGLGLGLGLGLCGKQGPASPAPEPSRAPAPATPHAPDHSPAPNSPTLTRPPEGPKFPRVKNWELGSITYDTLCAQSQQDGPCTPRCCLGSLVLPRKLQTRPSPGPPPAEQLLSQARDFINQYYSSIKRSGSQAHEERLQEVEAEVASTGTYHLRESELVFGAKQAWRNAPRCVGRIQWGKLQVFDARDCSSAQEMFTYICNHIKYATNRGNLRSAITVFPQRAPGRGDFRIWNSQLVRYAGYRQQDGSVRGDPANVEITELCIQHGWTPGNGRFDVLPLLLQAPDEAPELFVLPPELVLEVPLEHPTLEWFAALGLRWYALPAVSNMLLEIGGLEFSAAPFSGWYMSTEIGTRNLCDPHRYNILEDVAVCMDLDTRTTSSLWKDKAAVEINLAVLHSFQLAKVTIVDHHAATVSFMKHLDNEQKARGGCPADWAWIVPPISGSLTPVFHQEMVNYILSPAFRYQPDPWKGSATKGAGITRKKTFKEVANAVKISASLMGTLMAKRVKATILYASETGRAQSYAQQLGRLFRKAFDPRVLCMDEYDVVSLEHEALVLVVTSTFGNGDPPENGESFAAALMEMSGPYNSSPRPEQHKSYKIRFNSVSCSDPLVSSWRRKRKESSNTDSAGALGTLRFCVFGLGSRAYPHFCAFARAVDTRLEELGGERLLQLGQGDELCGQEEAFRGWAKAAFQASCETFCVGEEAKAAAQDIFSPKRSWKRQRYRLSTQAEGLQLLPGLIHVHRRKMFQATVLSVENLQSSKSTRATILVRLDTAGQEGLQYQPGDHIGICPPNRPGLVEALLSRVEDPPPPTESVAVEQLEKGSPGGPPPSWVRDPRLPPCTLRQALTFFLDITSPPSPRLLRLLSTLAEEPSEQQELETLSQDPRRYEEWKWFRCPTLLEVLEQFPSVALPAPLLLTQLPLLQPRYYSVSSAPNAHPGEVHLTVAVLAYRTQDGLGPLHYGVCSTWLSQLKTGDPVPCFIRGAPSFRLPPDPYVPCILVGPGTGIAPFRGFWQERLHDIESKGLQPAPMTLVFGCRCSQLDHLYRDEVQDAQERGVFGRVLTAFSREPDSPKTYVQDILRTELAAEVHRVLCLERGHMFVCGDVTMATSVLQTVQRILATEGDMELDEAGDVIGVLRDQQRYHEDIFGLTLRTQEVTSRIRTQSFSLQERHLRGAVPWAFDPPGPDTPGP


Target: T1, endothelial nitric oxide synthase (eNOS)
Assay: cell-based or functional assay

| Binder | EC50 of inhibition of VEGF-induced NO release in BAEC [µM] |
| --- | --- |
| RQIKIWFQNRRMKWKKDGIWKASFTTFTVTKYWFYR [AP-Cav] | 1.8 |
| RRPPRDGIWKASFTTFTVTKYWFYR [Endo5-Cav] | 7.5 |
